Biological target: MCT2 tagged at its N-terminus with CFP (rat) (UniProt Q63344)
Experiment: FRET or BRET; live COS-7 cells co-transfected with MCT2-ECFP (N-terminal) and np55- or np65-EYFP (C-terminal), 48 h after transfection; 37°C, imaging buffer pH 7.4; ratio of emission at 480 nm to 530 nm on excitation at 430 nm (MCT2-CFP alone 1.33±0.016)

Sequence of np55 C-terminally labelled with YFP (natural protein) (P97546 29-393): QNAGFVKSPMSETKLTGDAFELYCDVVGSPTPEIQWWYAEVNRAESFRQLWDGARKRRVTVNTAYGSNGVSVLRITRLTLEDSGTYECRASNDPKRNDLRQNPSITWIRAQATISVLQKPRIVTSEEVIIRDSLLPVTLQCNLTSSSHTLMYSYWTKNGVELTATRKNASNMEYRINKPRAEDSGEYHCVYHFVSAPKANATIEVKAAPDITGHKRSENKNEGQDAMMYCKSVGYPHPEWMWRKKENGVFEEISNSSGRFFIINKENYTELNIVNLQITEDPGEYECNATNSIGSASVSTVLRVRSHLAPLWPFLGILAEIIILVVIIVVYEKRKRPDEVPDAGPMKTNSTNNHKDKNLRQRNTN
Sequence of MCT2 tagged at its N-terminus with CFP (rat) (Q63344 whole entry): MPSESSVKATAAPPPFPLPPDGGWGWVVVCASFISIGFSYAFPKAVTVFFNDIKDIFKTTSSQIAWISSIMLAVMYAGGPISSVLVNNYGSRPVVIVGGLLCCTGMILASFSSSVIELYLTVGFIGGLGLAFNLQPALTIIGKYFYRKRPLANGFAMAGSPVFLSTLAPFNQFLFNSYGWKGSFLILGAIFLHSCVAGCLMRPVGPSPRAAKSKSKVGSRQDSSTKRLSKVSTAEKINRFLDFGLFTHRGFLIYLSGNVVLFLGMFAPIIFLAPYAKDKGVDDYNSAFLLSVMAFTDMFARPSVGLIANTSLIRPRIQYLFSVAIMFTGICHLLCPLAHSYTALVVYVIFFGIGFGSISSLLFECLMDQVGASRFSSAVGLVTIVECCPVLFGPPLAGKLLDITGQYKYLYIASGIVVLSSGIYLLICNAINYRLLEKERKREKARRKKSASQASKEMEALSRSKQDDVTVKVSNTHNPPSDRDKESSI

np55 C-terminally labelled with YFP (natural protein)
480:530 nm fluorescence emission ratio (FRET): 0.797
